Measured values reported in PMC7835958, “Unlike its Paralog LEDGF/p75, HRP-2 Is Dispensable for MLL-R Leukemogenesis but Important for Leukemic Cell Survival” (Cells, 2021).

T1: MBP-LEDGF/p75_(325–530) (human, UniProt O75475 325-530)
T1 construct: LEDGF/p75 C-terminal fragment, residues 325-530; also called LEDGF_(325–530); MBP-fused C-terminal fragment of LEDGF/p75; source: E. coli Rosetta2 (DE3), purified
T1 sequence (looked up): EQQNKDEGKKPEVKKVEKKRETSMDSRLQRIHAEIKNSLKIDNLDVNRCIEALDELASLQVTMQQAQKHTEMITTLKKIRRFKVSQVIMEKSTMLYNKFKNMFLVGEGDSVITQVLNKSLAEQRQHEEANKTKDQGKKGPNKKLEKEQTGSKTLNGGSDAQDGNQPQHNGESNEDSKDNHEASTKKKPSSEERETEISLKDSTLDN

T2: LEDGF/p75_(345–426) (human, UniProt O75475 345-426, 15N-labeled)
T2 construct: also called LEDGF/p75-IBD; LEDGF/p75 IBD; source: E. coli Rosetta2 (DE3), purified
T2 sequence (looked up): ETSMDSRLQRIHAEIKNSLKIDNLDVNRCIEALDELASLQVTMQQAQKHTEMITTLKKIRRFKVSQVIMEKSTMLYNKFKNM

T3: HRP-2_(469–549) (human, UniProt Q7Z4V5 469-549, 15N-labeled)
T3 construct: also called HRP-2-IBD; HRP-2 IBD; source: E. coli Rosetta2 (DE3), purified
T3 sequence (looked up): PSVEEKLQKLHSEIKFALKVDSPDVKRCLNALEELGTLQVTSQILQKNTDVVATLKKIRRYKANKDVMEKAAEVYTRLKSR


Key:
Details in all cases: both partners purified
MBP-LEDGF/p75_(325–530) = biological target: T1, MBP-LEDGF/p75_(325–530); test: AlphaScreen or HTRF; out-competition: Flag-LEDGF/p75 (0.3 nM) preincubated with MLL_(1–160)–GST (10 nM) before titration of MBP-LEDGF/p75_(325–530), MBP-HRP-2_(470–552) or MBP alone
[1] = biological target: T4, Full length flag-tagged LEDGF/p75 (human, UniProt O75475 1-530); test: as above
T4 construct: LEDGF/p75, full length; also called Flag-LEDGF/p75; flag-LEDGF/p75; source: E. coli Rosetta2 (DE3), purified

LEDGF/p75_(345–426) = biological target: T2, LEDGF/p75_(345–426); test: NMR titration; 20 µM 15N-labeled IBD (HRP-2 469–549 or LEDGF/p75 345–426) mixed with various concentrations of unlabeled synthetic MLL peptide (123–160); 15N/1H HSQC (SOFAST), 25 °C; KD from chemical shift perturbations
HRP-2_(469–549) = biological target: T3, HRP-2_(469–549); test: as above

binding result (MBP-LEDGF/p75_(325–530)) | binding result [1] | binding result (LEDGF/p75_(345–426)) | Kd (HRP-2_(469–549)) [µM] | Binder
binds | binds |  |  | MLL_(1–160)–GST (domain or fragment, UniProt Q03164 1-160, looked up, MLL (MLL1, KMT2A) N-terminal fragment, residues 1-160; The printed name MLL_(1–160)–GST hints at a C-terminal GST; also called GST-tagged MLL_(1–160); GST-tagged N-terminal fragment of MLL; source: E. coli Rosetta2 (DE3), purified) MAHSCRWRFPARPGTTGGGGGGGRRGLGGAPRQRVPALLLPPGPPVGGGGPGAPPSPPAVAAAAAAAGSSGAGVPGGAAAASAASSSSASSSSSSSSSASSGPALLRVGPGFDAALQVSAAIGTNLRRFRAVFGESGGGGGSGEDEQFLGFGSDEEVRVR
 |  | binds | 54.4 ± 2.2 | GTNLRRFRAVFGESGGGGGSGEDEQFLGFGSDEEVRVR (peptide, UniProt Q03164 123-160, looked up, also called MLL-derived peptide; source: synthetic peptide) [synthetic MLL peptide (123–160)]
